Earlier results, collected in patent US20180221339A1, “COMPOSITIONS AND METHODS FOR TREATING AND DIAGNOSING OCULAR DISORDERS” (TRANSLATUM MEDICUS, INC., priority 2015, published 2018).

Biological target: T1, complement factor D (CFD) (Homo sapiens, UniProt P00746)
T1 construct: host or cells: patients (endogenous protein, in vivo)
Details: phase II study, 18 month period; most robust in patients with complement factor H and I polymorphisms

T1 sequence (P00746 26-253): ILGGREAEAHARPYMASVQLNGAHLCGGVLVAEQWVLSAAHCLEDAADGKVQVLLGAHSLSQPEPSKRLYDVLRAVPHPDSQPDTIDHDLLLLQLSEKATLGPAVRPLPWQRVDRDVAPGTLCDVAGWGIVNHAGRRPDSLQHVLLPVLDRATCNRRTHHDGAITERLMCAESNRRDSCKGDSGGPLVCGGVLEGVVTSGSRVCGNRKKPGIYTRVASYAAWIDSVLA

In the case of “Lampilizumab: complement factor D (CFD) inhibitor; anti-factor D antibody (Genentech)”, the “growth (expansion) of geographic atrophy” value is given as “can slow the growth, i.e. expansion, of geographic atrophy”.
